Data published in patent US20040071717A1.

Biological target: specific IgE from a pool of sera from plantain-allergic patients
Assay: inhibition ELISA: nPla I 1 coated on plate, pooled-serum IgE inhibited by rPla I 1.0101, detection with HRP-labeled anti-human IgE

% inhibition of IgE-binding: 80%
B1: recombinant Pla I 1 allergen, variant 0101 (rPla I 1.0101), expressed in Pichia pastoris (protein)
chain: ETQTSHPAKFHVEGEVYCNVCHSRNLINELSERMAGAQVQLDCKDDSKKVIYSIGGETDQDGVYRLPVVGYHEDCEIKLVKSSRPDCSEIPKLAKGTIQTSKVDLSKNTTITEKTRHVKPLSFRAKTDAPGC
modifications: partly N-glycosylated (glycosylated 22 kDa and non-glycosylated 17 kDa forms; potential N-glycosylation site at position 107)
